Source: the supplement of paper PMC10201428
± gives the standard deviation of the averaged measurements.

How the values were obtained:
[1] = system: VchCAST RNA-guided transposition machinery (E. coli BL21(DE3) host, lacZ target); experiment: relative integration efficiency (T-RL orientation) vs wild-type transposon end (log2 (normalized fold change)); transposon end mutated: right end (5 bp flank + 75 bp right end); higher = more efficient transposition
Procedure, shortened: (§1)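 Co-transformation of E. coli BL21(DE3) combined a pUC57 mini-transposon donor, holding barcoded pools of 1549 left-end or 1849 right-end variants, with a T7-driven plasmid encoding a CRISPR array, tniQ-cas8-cas7-cas6 and tnsA-tnsB-tnsC. After plating with 0.1 mM IPTG at 37°C for 18 h, input plasmids and genomic integration junctions were PCR-amplified and Illumina-sequenced across two biological output replicates, with four reference barcodes. Relative integration efficiency is the normalised, log-transformed output/input barcode fold change.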

[2] = system: VchCAST RNA-guided transposition machinery (E. coli BL21(DE3) host, lacZ target); experiment: relative integration efficiency (T-LR orientation) vs wild-type transposon end (log2 (normalized fold change)); transposon end mutated: right end (5 bp flank + 75 bp right end); higher = more efficient transposition
Procedure, shortened: as §1

Sequence	relative integration efficiency (log2) [1]	relative integration efficiency (log2) [2]
ACATTTGTTGATACAACCATAAGTTGATATTTTCAACCATAAAATGATAATTATCACAACCATAAAATGATAATTACTCTGATCATAGTCAGACCAACATTGCTACGACCCGTATTCGCACCGACAC	-0.00738 ± 0.052	-0.774 ± 0.049
ACATTTGTTGATACAACCATAAGTTGATATTTTCAACCATAAAATGATAATTATCACAACCATAAAGTGATATTTACTCTGATCATAGTCAGACCAACATTGCTACGACCCGTATTCGCACCGACAC	0.0134 ± 0.036	-0.26 ± 0.094
ACATTTGTTGATACAACCATAAGTTGATATTTTCAACCATAAAATGATAATTATCACAACCATAAGTTGATATTTTCTCTGATCATAGTCAGACCAACATTGCTACGACCCGTATTCGCACCGACAC	-0.233 ± 0.067	-0.119 ± 0.45
ACATTTGTTGATACAACCATAAGTTGATATTTTCAACCATAAAATGATAATTATCACAACCATATATTGATATCTCCTCTGATCATAGTCAGACCAACATTGCTACGACCCGTATTCGCACCGACAC	-0.078 ± 0.041	0.0384 ± 0.016
ACATTTGTTGATACAACCATAAGTTGATATTTTCAACCATAAAATGATAATTATCACACCCATAAATTGATAATTACTCTGATCATAGTCAGACCAACATTGCTACGACCCGTATTCGCACCGACAC	-0.162 ± 0.0022	-0.376 ± 0.15
ACATTTGTTGATACAACCATAAGTTGATATTTTCAACCATAAAATGATAATTATCACACCCATAAATTGATATTGCCTCTGATCATAGTCAGACCAACATTGCTACGACCCGTATTCGCACCGACAC	0.367 ± 0.094	0.105 ± 0.58
ACATTTGTTGATACAACCATAAGTTGATATTTTCAACCATAAAATGATAATTATCAGTGGGTATTTAACTATAACGCTCTGATCATAGTCAGACCAACATTGCTACGACCCGTATTCGCACCGACAC	-0.962 ± 0.12	2.48 ± 0.2
ACATTTGTTGATACAACCATAAGTTGATATTTTCAACCATAAAGTGATATTTATCACAACCATAAAATGATAATTACTCTGATCATAGTCAGACCAACATTGCTACGACCCGTATTCGCACCGACAC	-0.0697 ± 0.03	-0.435 ± 0.24
ACATTTGTTGATACAACCATAAGTTGATATTTTCAACCATAAAGTGATATTTATCACAACCATAAAGTGATATTTACTCTGATCATAGTCAGACCAACATTGCTACGACCCGTATTCGCACCGACAC	0.0778 ± 0.073	-0.067 ± 0.078
ACATTTGTTGATACAACCATAAGTTGATATTTTCAACCATAAAGTGATATTTATCACAACCATAAGTTGATATTTTCTCTGATCATAGTCAGACCAACATTGCTACGACCCGTATTCGCACCGACAC	0.119 ± 0.067	-0.246 ± 0.14
ACATTTGTTGATACAACCATAAGTTGATATTTTCAACCATAAAGTGATATTTATCACAACCATATATTGATATCTCCTCTGATCATAGTCAGACCAACATTGCTACGACCCGTATTCGCACCGACAC	-0.136 ± 0.014	-0.347 ± 0.053
ACATTTGTTGATACAACCATAAGTTGATATTTTCAACCATAAAGTGATATTTATCACACCCATAAATTGATAATTACTCTGATCATAGTCAGACCAACATTGCTACGACCCGTATTCGCACCGACAC	-0.109 ± 0.07	-0.0467 ± 0.44
ACATTTGTTGATACAACCATAAGTTGATATTTTCAACCATAAAGTGATATTTATCACACCCATAAATTGATATTGCCTCTGATCATAGTCAGACCAACATTGCTACGACCCGTATTCGCACCGACAC	-0.032 ± 0.064	-0.507 ± 0.46
ACATTTGTTGATACAACCATAAGTTGATATTTTCAACCATAAAGTGATATTTATCAGTGGGTATTTAACTATAACGCTCTGATCATAGTCAGACCAACATTGCTACGACCCGTATTCGCACCGACAC	-0.687 ± 0.11	2.69 ± 0.17
ACATTTGTTGATACAACCATAAGTTGATATTTTCAACCATAAGTTGATATTTTTCACAACCATAAAATGATAATTACTCTGATCATAGTCAGACCAACATTGCTACGACCCGTATTCGCACCGACAC	0.228 ± 0.008	-0.0651 ± 0.34
ACATTTGTTGATACAACCATAAGTTGATATTTTCAACCATAAGTTGATATTTTTCACAACCATAAAGTGATATTTACTCTGATCATAGTCAGACCAACATTGCTACGACCCGTATTCGCACCGACAC	0.196 ± 0.011	-0.145 ± 0.024
ACATTTGTTGATACAACCATAAGTTGATATTTTCAACCATAAGTTGATATTTTTCACAACCATAAGTTGATATTTTCTCTGATCATAGTCAGACCAACATTGCTACGACCCGTATTCGCACCGACAC	0.214 ± 0.079	-0.207 ± 0.25
